Experimental findings from patent US20200190192A1 are described below.

The experiment addresses cynomolgus PD-1 expressed on CHO cells (cynomolgus monkey). The experiment can be described thus: cPD-1 binding titration (format not named; taken as cell binding).

B1: 1353-G10 H1 HC IgG (antibody, V domains shown)
VH: EVQLVQSGAEVKKPGASVKVSCKASGYTFDSYGISWVRQAPGQGLEWMGWISAYNGNTNYAQKLQGRVTMTTDTSTNTAYMELRSLRSDDTAVYYCARDVDYGTGSGYWGQGTLVTVSS
VL: SYELTQPPSVSVSPGQTARITCSGDALPKQYAYWYQQKPGQAPVMVIYKDTERPSGIPERFSGSSSGTKVTLTISGVQAEDEADYYCQSADNSITYRVFGGGTKVTVL
As for B1, the Bmax was found to be 2960 and the Kd (as a rule, the constant that tells how readily two partners part at equilibrium) is 0.3 nM.

B2: 1353-G10 H1/vk1-39 IgG (antibody, V domains shown)
VH: EVQLVQSGAEVKKPGASVKVSCKASGYTFDSYGISWVRQAPGQGLEWMGWISAYNGNTNYAQKLQGRVTMTTDTSTNTAYMELRSLRSDDTAVYYCARDVDYGTGSGYWGQGTLVTVSS
VL: DIQLTQSPSSLSASVGDRVTITCSGDALPKQYAYWYQQKPGKAPKLLIYKDTERPSGVPSRFSGSSSGTKVTLTISSLQPEDFATYYCQSADNSITYRVFGGGTKVEIK
The molecule B2 yielded a Bmax of 2800 and an equilibrium dissociation constant (Kd) of 2.3 nM.
